Assay [1] addresses GST-fused AjTmod after the addition of His-fused STPKLRR (phosphorylated AjTmod) (Apostichopus japonicus). Briefly: MST; as a4, but His-fused STPKLRR (5 uM) added to GSTTmod/His-fused actin and incubated for 10 min.
The target of assay [2] is GST-fused AjTmod (complete AjTmod sequence) (Apostichopus japonicus). The assay is described as follows: MST; Monolith NT.115; NT-647-NHS labelled protein (about 5 uM) with 16 serial concentrations of unlabelled His-fused actin; 50 mM Tris-HCl pH 8.0, 0.02% Tween 20; 25 °C.

This passage reports Kd results from publication PMC10237653.

pKd: −log10 of the molar value.

As to His-fused actin (natural protein), the pKd in assay [1] was 8.15; in assay [2], 8.83.

Usually pKd stands for the Kd on a negative log10 scale, so that one unit is a factor of ten. Higher therefore signals a low Kd.
